# According to paper PMC12102759 (2025):
# B1: PRDM14 peptide 196-211 (PR domain zinc finger protein 14), 16-mer library wild type / NSP3 SUD-M (ORF1ab Nsp3c SUD-M, residues 1356-1493) (parent complex)
# chain 1: QFTEEDLHFVLYGVTP
# chain 2: LPSIISNEKQEILGTVSWNLREMLAHAEETRKLMPVCVETKAIVSTIQRKYKGIKIQEGVVDYGARFYFYTSKTTVASLINTLNDLNETLVTMPLGYVTHGLNLEEAARYMRSLKVPATVSVSSPDAVTAYNGYLTSS
# B2: AZIN2 peptide 1-16 (Antizyme inhibitor 2), 16-mer library wild type / NSP3 ADRP (ORF1ab Nsp3b ADRP, residues 1023-1192) (parent complex)
# chain 1: MAGYLSESDFVMVEEG
# chain 2: not shown
# Variants of: B1
# Assay: bait immobilised on MaxiSorp plates (10 µg), library pre-cleared on GST, 2 h binding at 4 °C, five washes; one round per day, days 1-4; value from days 2 and 3
row,Variant,screen value
1,chain 1 QFTEEDLYFVLYGVTP,"5.98e-05 average fractional NGS count over selection days 2 and 3 (reads of this peptide / all reads for the bait, averaged over …"
2,chain 1 QFTEEDLKFVLYGVTP,"0.000229 average fractional NGS count over selection days 2 and 3 (reads of this peptide / all reads for the bait, averaged over …"
3,chain 1 QFTEEDLMFVLYGVTP,"0.194 average fractional NGS count over selection days 2 and 3 (reads of this peptide / all reads for the bait, averaged over …"
4,chain 1 QFTEEDLIFVLYGVTP,"8.91e-05 average fractional NGS count over selection days 2 and 3 (reads of this peptide / all reads for the bait, averaged over …"
5,chain 1 QFTEEDLEFVLYGVTP,"4.27e-05 average fractional NGS count over selection days 2 and 3 (reads of this peptide / all reads for the bait, averaged over …"
6,chain 1 QFTEEDLLFVLYGVTP,"0.000127 average fractional NGS count over selection days 2 and 3 (reads of this peptide / all reads for the bait, averaged over …"
7,chain 1 QFTEEDRHFVLYGVTP,"7.05e-05 average fractional NGS count over selection days 2 and 3 (reads of this peptide / all reads for the bait, averaged over …"
8,chain 1 QFTEEELHFVLYGVTP,"0.0721 average fractional NGS count over selection days 2 and 3 (reads of this peptide / all reads for the bait, averaged over …"
9,chain 1 QFTEEGLHFVLYGVTP,"5.78e-05 average fractional NGS count over selection days 2 and 3 (reads of this peptide / all reads for the bait, averaged over …"
10,chain 1 QFTEEVLHFVLYGVTP,"5.37e-05 average fractional NGS count over selection days 2 and 3 (reads of this peptide / all reads for the bait, averaged over …"
11,chain 1 QFTEEALHFVLYGVTP,"6.63e-05 average fractional NGS count over selection days 2 and 3 (reads of this peptide / all reads for the bait, averaged over …"
12,chain 1 QFTEEDLHFVLYGVTF,"0.000936 average fractional NGS count over selection days 2 and 3 (reads of this peptide / all reads for the bait, averaged over …"
13,chain 1 QFTEEDLHFVLYGVTV,"0.000126 average fractional NGS count over selection days 2 and 3 (reads of this peptide / all reads for the bait, averaged over …"
14,chain 1 QFTEEDLHFVLYGVTE,"9.32e-05 average fractional NGS count over selection days 2 and 3 (reads of this peptide / all reads for the bait, averaged over …"
15,chain 1 QFTEEDLHFVLYGVTD,"0.004 average fractional NGS count over selection days 2 and 3 (reads of this peptide / all reads for the bait, averaged over …"
16,chain 1 QFTEEDLHFVLYGVTY,"0.000111 average fractional NGS count over selection days 2 and 3 (reads of this peptide / all reads for the bait, averaged over …"
17,chain 1 QFTEEDLHFVLYGVTL,"0.00707 average fractional NGS count over selection days 2 and 3 (reads of this peptide / all reads for the bait, averaged over …"
18,chain 1 QFTEEDLHFVLYGVTK,"9.04e-05 average fractional NGS count over selection days 2 and 3 (reads of this peptide / all reads for the bait, averaged over …"
19,chain 1 QFTEEDLHFVLYGVTH,"0.000235 average fractional NGS count over selection days 2 and 3 (reads of this peptide / all reads for the bait, averaged over …"
20,chain 1 QFTEEDLHFVLYGVTR,"6.57e-05 average fractional NGS count over selection days 2 and 3 (reads of this peptide / all reads for the bait, averaged over …"
21,chain 1 QFTEEDLHFVLYGVTS,"0.145 average fractional NGS count over selection days 2 and 3 (reads of this peptide / all reads for the bait, averaged over …"
22,chain 1 QFTEEDLHFVLMGVTP,"4.44e-05 average fractional NGS count over selection days 2 and 3 (reads of this peptide / all reads for the bait, averaged over …"
23,chain 1 QFTEEDLHFVLEGVTP,"0.000104 average fractional NGS count over selection days 2 and 3 (reads of this peptide / all reads for the bait, averaged over …"
24,chain 1 QFTQEDLHFVLYGVTP,"4.52e-05 average fractional NGS count over selection days 2 and 3 (reads of this peptide / all reads for the bait, averaged over …"
25,chain 1 QFTEEDLHFVLYGLTP,"4.25e-05 average fractional NGS count over selection days 2 and 3 (reads of this peptide / all reads for the bait, averaged over …"
26,chain 1 QFTEEDLHFVLYGITP,"7.71e-05 average fractional NGS count over selection days 2 and 3 (reads of this peptide / all reads for the bait, averaged over …"
27,chain 1 QFSEEDLHFVLYGVTP,"0.000238 average fractional NGS count over selection days 2 and 3 (reads of this peptide / all reads for the bait, averaged over …"

# Variants of: B2
# Assay: as above
row,Variant,screen value
1,chain 1 G16K,"0.000188 average fractional NGS count over selection days 2 and 3 (reads of this peptide / all reads for the bait, averaged over …"
2,chain 1 G16P,"9.14e-05 average fractional NGS count over selection days 2 and 3 (reads of this peptide / all reads for the bait, averaged over …"
3,chain 1 G16D,"0.00105 average fractional NGS count over selection days 2 and 3 (reads of this peptide / all reads for the bait, averaged over …"
4,chain 1 G16Q,"0.000216 average fractional NGS count over selection days 2 and 3 (reads of this peptide / all reads for the bait, averaged over …"
5,chain 1 G16T,"0.000528 average fractional NGS count over selection days 2 and 3 (reads of this peptide / all reads for the bait, averaged over …"
6,chain 1 G16L,"0.000127 average fractional NGS count over selection days 2 and 3 (reads of this peptide / all reads for the bait, averaged over …"
7,chain 1 G16N,"0.00027 average fractional NGS count over selection days 2 and 3 (reads of this peptide / all reads for the bait, averaged over …"
8,chain 1 E15S,"0.00159 average fractional NGS count over selection days 2 and 3 (reads of this peptide / all reads for the bait, averaged over …"
9,chain 1 E15N,"0.000739 average fractional NGS count over selection days 2 and 3 (reads of this peptide / all reads for the bait, averaged over …"
10,chain 1 E15P,"7.42e-05 average fractional NGS count over selection days 2 and 3 (reads of this peptide / all reads for the bait, averaged over …"
11,chain 1 E15T,"0.000718 average fractional NGS count over selection days 2 and 3 (reads of this peptide / all reads for the bait, averaged over …"
12,chain 1 S8M,"0.000908 average fractional NGS count over selection days 2 and 3 (reads of this peptide / all reads for the bait, averaged over …"
13,chain 1 S8L,"0.000166 average fractional NGS count over selection days 2 and 3 (reads of this peptide / all reads for the bait, averaged over …"
14,chain 1 S8H,"6.7e-05 average fractional NGS count over selection days 2 and 3 (reads of this peptide / all reads for the bait, averaged over …"
15,chain 1 S8Y,"0.035 average fractional NGS count over selection days 2 and 3 (reads of this peptide / all reads for the bait, averaged over …"
16,chain 1 Y4W,"0.00197 average fractional NGS count over selection days 2 and 3 (reads of this peptide / all reads for the bait, averaged over …"
17,chain 1 V11M,"0.000364 average fractional NGS count over selection days 2 and 3 (reads of this peptide / all reads for the bait, averaged over …"

row,Variant,screen value
1,chain 1 V11L,"0.0066 average fractional NGS count over selection days 2 and 3 (reads of this peptide / all reads for the bait, averaged over …"
2,chain 1 V11I,"0.195 average fractional NGS count over selection days 2 and 3 (reads of this peptide / all reads for the bait, averaged over …"
3,chain 1 E14R,"0.000473 average fractional NGS count over selection days 2 and 3 (reads of this peptide / all reads for the bait, averaged over …"
4,chain 1 E14M,"0.000122 average fractional NGS count over selection days 2 and 3 (reads of this peptide / all reads for the bait, averaged over …"
5,chain 1 V13I,"0.00423 average fractional NGS count over selection days 2 and 3 (reads of this peptide / all reads for the bait, averaged over …"
6,chain 1 V13T,"8.71e-05 average fractional NGS count over selection days 2 and 3 (reads of this peptide / all reads for the bait, averaged over …"
7,chain 1 V13Q,"0.000748 average fractional NGS count over selection days 2 and 3 (reads of this peptide / all reads for the bait, averaged over …"
8,chain 1 D9N,"0.0514 average fractional NGS count over selection days 2 and 3 (reads of this peptide / all reads for the bait, averaged over …"
9,chain 1 D9Q,"0.000191 average fractional NGS count over selection days 2 and 3 (reads of this peptide / all reads for the bait, averaged over …"
10,chain 1 D9E,"0.000316 average fractional NGS count over selection days 2 and 3 (reads of this peptide / all reads for the bait, averaged over …"
11,chain 1 M12R,"0.000896 average fractional NGS count over selection days 2 and 3 (reads of this peptide / all reads for the bait, averaged over …"
12,chain 1 M12Y,"0.000582 average fractional NGS count over selection days 2 and 3 (reads of this peptide / all reads for the bait, averaged over …"
13,chain 1 M12L,"0.0611 average fractional NGS count over selection days 2 and 3 (reads of this peptide / all reads for the bait, averaged over …"
14,chain 1 M12E,"0.000138 average fractional NGS count over selection days 2 and 3 (reads of this peptide / all reads for the bait, averaged over …"
15,chain 1 G3A,"0.000627 average fractional NGS count over selection days 2 and 3 (reads of this peptide / all reads for the bait, averaged over …"
16,chain 1 G3R,"7.43e-05 average fractional NGS count over selection days 2 and 3 (reads of this peptide / all reads for the bait, averaged over …"
